The values that follow come from US20230227547A1, “ANTIBODY-PAYLOAD CONJUGATES WITH ENHANCED DELIVERY DOMAIN AND USES THEREOF” (IPROGEN BIOTECH INC., priority 2019, published 2023).

The target of this assay is CD22 (human) (UniProt P20273). Kind of assay: cell-based or functional assay.

As to “Anti-CD22 mAb-MMAE8 (Inotuzumab ADC) (antibody)”, the IC50 (nM), XTT viability, RL cells, 72 h is 0.26 nM and the IC50 (nM), XTT viability, Ramos cells, 72 h was 0.04 nM.

Turning to “Anti-CD22 mAb-LL37-MMAE8 (Inotuzumab ADC with LL37) (antibody)”, the IC50 (nM), XTT viability, RL cells, 72 h was 0.235 nM and the IC50 (nM), XTT viability, Ramos cells, 72 h was 0.035 nM.
